B1: murine IL-13 receptor α2/FC (Fc fusion, UniProt O88786 22-334, looked up, not shown: a dimerising Fc or GST)
chain: LEIKVNPPQDFEILDPGLLGYLYLQWKPPVVIEKFKGCTLEYELKYRNVDSDSWKTIITRNLIYKDGFDLNKGIEGKIRTHLSEHCTNGSEVQSPWIEASYGISDEGSLETKIQDMKCIYYNWQYLVCSWKPGKTVYSDTNYTMFFWYEGLDHALQCADYLQHDEKNVGCKLSNLDSSDYKDFFICVNGSSKLEPIRSSYTVFQLQNIVKPLPPEFLHISVENSIDIRMKWSTPGGPIPPRCYTYEIVIREDDISWESATDKNDMKLKRRANESEDLCFFVRCKVNIYCADDGIWSEWSEEECWEGYTGPDSK
B2: human IL-13 receptor α2/Fc (Fc fusion, UniProt Q14627 27-343, looked up, not shown: a dimerising Fc or GST)
chain: DTEIKVNPPQDFEIVDPGYLGYLYLQWQPPLSLDHFKECTVEYELKYRNIGSETWKTIITKNLHYKDGFDLNKGIEAKIHTLLPWQCTNGSEVQSSWAETTYWISPQGIPETKVQDMDCVYYNWQYLLCSWKPGIGVLLDTNYNLFYWYEGLDHALQCVDYIKADGQNIGCRFPYLEASDYKDFYICVNGSSENKPIRSSYFTFQLQNIVKPLPPVYLTFTRESSCEIKLKWSIPLGPIPARCFDYEIEIREDDTTLVTATVENETYTLKTTNETRQLCFVVRSKVNIYCSDDGIWSEWSDKQCWEGEDLSKKTLLR

Target: IL-13 (human IL-13, preparation not specified) (human) (UniProt P35225)
Test: cell-based or functional assay

IL-13 (human IL-13, preparation not specified) (human), sequence (P35225 35-146 limits assumed): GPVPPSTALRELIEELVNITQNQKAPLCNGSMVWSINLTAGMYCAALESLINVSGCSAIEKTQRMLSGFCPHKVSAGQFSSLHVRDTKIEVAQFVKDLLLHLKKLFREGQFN

| Binder | IC50, Eotaxin-1 assay, Average [nM] | IC50, Eotaxin-1 assay, n = 1 [nM] | IC50, Eotaxin-1 assay, n = 2 [nM] | IC50, Eotaxin-1 assay, n = 3 [nM] |
| --- | --- | --- | --- | --- |
| B1 | 0.032 | 0.029 | 0.039 | 0.029 |
| B2 | 0.131 | 0.128 | 0.147 | 0.119 |
